Data: paper PMC7305236

How the values were obtained:
[1] = target: ACKR3 C-terminally tagged with SmBiT (human) (UniProt P25106)
[2] = target: delta opioid receptor (DOR) C-terminally tagged with SmBiT (UniProt P41143)
[3] = target: kappa opioid receptor (KOR) C-terminally tagged with SmBiT (UniProt P41145)
[4] = target: mu opioid receptor (MOR) C-terminally tagged with SmBiT (UniProt P35372)
[5] = target: ACKR3 C-terminally tagged with SmBiT (human) (UniProt P25106); remark: listed apart in the source
[6] = target: atypical chemokine receptor ACKR3 (formerly CXCR7) (human) (UniProt P25106)
Chain of atypical chemokine receptor ACKR3 (formerly CXCR7) (human) (P25106 whole entry): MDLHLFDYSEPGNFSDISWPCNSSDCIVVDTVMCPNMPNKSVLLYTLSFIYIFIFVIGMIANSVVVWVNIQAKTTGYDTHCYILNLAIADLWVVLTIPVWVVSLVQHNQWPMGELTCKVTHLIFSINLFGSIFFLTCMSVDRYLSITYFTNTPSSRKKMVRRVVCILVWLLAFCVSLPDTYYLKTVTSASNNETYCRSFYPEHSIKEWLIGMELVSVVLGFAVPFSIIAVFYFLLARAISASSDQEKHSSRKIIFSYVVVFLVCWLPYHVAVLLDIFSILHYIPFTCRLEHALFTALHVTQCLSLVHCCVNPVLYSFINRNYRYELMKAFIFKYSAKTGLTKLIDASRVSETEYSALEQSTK

mouse ACKR3 (mouse) = mouse ACKR3 (mouse) (UniProt P56485)
Chain of mouse ACKR3 (mouse) (P56485 whole entry): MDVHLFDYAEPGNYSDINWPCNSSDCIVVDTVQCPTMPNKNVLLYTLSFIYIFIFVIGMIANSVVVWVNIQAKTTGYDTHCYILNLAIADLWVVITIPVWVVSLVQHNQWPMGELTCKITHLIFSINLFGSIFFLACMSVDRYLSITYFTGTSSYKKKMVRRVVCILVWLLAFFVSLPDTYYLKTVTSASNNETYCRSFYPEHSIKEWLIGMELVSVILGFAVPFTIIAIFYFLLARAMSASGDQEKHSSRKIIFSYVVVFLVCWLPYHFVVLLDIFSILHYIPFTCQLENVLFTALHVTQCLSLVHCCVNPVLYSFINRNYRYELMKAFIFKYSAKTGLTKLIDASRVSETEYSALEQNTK

Chain of ACKR3 C-terminally tagged with SmBiT (human) (P25106 whole entry): as the sequence (P25106 whole entry) above
Chain of mCXCL12 (P40224 22-93): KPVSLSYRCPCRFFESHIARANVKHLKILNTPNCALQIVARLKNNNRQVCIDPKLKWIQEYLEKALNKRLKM
Chain of CXCL12 (P48061 22-93): as the sequence (P40224 22-93) above, with I18V, L70F counted along it

Substance | β-arrestin-1 recruitment (NanoBiT, U87 cells): EC50 [1] | β-arrestin-1 recruitment (NanoBiT, U87 cells): EC50 [2] | β-arrestin-1 recruitment (NanoBiT, U87 cells): EC50 [3] | β-arrestin-1 recruitment (NanoBiT, U87 cells): EC50 [4] | further results
Adrenorphin (peptide) | 0.0565 µM | 0.157 µM | 0.0435 µM | 0.0416 µM | 
Big Dynorphin (peptide) | 0.108 µM | 0.529 µM | 0.0191 µM | 0.652 µM | 
CXCL12 (from UniProt P48061 22-93) (ligand) |  |  |  |  | β-arrestin recruitment to ACKR3 (Fig. 4b): EC50 [5]: 0.0012 µM
Dynorphin A 1–13 (peptide) | 0.0619 µM | 0.319 µM | 0.0025 µM | 2 µM | 
Dynorphin A 2–13 (peptide) | 6 µM |  |  |  | 
Dynorphin A 2–17 (peptide) | 2 µM |  |  |  | 
Dynorphin A (peptide) | 0.11 µM | 0.24 µM |  | 1.5 µM | 
Dynorphin B (peptide) | 0.727 µM | 0.158 µM | 0.0109 µM | 2 µM | 
Endomorphin-2 (peptide) |  |  |  | 0.231 µM | 
Leumorphin (peptide) | 1.32 µM | 3 µM | 0.0214 µM |  | 
Nociceptin 1–13 (peptide) | 10 µM |  |  |  | 
[Phe1Ψ(CH2-NH)-gly2]nociceptin-(1–13)-NH2 (peptide) | 2.97 µM |  |  |  | 
adrenorphin-derived peptide yggfmrrv (Daa) |  |  |  |  | Supplementary Table 4: EC50 of β-arrestin-1 recruitment to ACKR3, U87 cells [6]: > 10 µM
mCXCL12 (from UniProt P40224 22-93) (ligand) |  |  |  |  | Supplementary Table 6: EC50 of β-arrestin-1 recruitment to mACKR3, U87 cells (mouse ACKR3 (mouse)): 0.00332 µM
β-endorphin (peptide) |  | 0.441 µM |  |  | 
